Test results from paper PMC8776815, “Rational design of a helical peptide inhibitor targeting c-Myb–KIX interaction” (Scientific Reports, 2022).
No end group written: not given here.

Tests used:
KIX = settings: previous studies; read-out: Kd (dissociation constant for KIX binding); cited from earlier work
Text: Although the c-Myb TAD is intrinsically disordered, the region of residues 284–315, called Myb32, has a high helical propensity. […] Moreover, Myb32 is known to bind KIX by a conformational selection mechanism. This information may provide a clue to improve the binding affinity to KIX[38],[40]. Therefore, Myb32 is a suitable template for designing peptide inhibitors.

[1] = target: T1, KIX domain of CBP (c-Myb/pKID site) (Mus musculus, UniProt P45481); test: Isothermal titration calorimetry (ITC) of KIX binding of Myb32 peptides; settings: 20 mM Tris-acetate pH 7.0, 50 mM NaCl, 30 °C, 600 μM Myb32 into 45 µM KIX + 90 µM MLL28, mean ± standard error, more than two measurements, read-out: Kd (dissociation constant for KIX binding)
T1 construct: KIX (residues 586–672 of mouse CBP); 6xHis-tag with thrombin cleavage site (MGHHHHHHSSGLVPR) (N); made in house; host or cells: E. coli BL21(DE3)pLysS for KIX; E. coli BL21(DE3) for MLL28
Text: Next, we performed isothermal titration calorimetry (ITC) measurements to investigate the KIX-binding affinity of the peptides. Although Myb32 primarily binds the c-Myb/pKID site on KIX, previous studies have shown that it also binds the MLL site, located opposite the c-Myb/pKID site[38]. Therefore, to prevent the secondary binding of Myb32, we conducted all ITC experiments in the presence of the MLL TAD peptide (residues 2842–2869, called MLL28) with a two-fold excess of MLL over KIX[38].
ITC measurements were conducted using a MicroCal iTC200 (Malvern Panalytical Ltd., Malvern, United Kingdom) in ITC buffer at 30 °C. All samples were dialyzed sufficiently before the experiments. 600 μM Myb32 was titrated into the cell containing 45 µM KIX and 90 µM MLL28. The data were analyzed using Origin software (OriginLab Co., Northampton, MA, USA) to obtain the Kd, stoichiometry of binding (N), and enthalpy change upon binding (ΔH). The Gibbs free energy change (ΔG) and entropy change (ΔS) upon binding were obtained as follows:3 ΔG=-RTln1/Kd 4 ΔS=ΔH-ΔG/T where R is the gas constant, and T is the temperature.

CBP KIX (Mus musculus) = CBP KIX (Mus musculus) (UniProt P45481); settings: cited from earlier work
Chain of CBP KIX (Mus musculus) (P45481 583-668): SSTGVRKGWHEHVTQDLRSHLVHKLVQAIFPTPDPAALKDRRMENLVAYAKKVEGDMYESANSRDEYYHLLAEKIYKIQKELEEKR

[2] = target: T2, KIX domain of CREB-binding protein (residues 586-672 of mouse CBP) without a His-tag (mouse, UniProt P45481 586-672); test: SPR; competitive binding assay (OpenSPR, localized SPR); His-tag-GB1-Myb32 wild type immobilised by amine coupling; 1 uM KIX without His-tag injected alone or mixed with inhibitor (1 nM to 300 uM); 20 mM sodium phosphate pH 7.0, 300 mM NaCl; 30 °C; settings: both partners purified
T2 construct: KIX domain, residues 586-672 of mouse CBP; the thrombin site ends in LVPR followed by G586 of KIX; also called KIX without a His-tag; source: E. coli BL21(DE3)pLysS, purified (Ni-NTA, thrombin cleavage, size exclusion chromatography); not shown: His6, N-terminal, cleaved
T2 sequence (P45481 586-672): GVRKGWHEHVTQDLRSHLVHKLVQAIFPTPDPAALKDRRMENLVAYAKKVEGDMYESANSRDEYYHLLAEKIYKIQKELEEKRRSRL

[3] = target: T3, KIX domain of CBP in the presence of the MLL TAD peptide MLL28 (two-fold excess of MLL28 over KIX) (mouse | human, UniProt P45481 586-672; Q03164 2842-2869); test: ITC; under the conditions of the SPR measurement: 20 mM sodium phosphate pH 7.0, 300 mM NaCl; in the presence of MLL28 (all ITC experiments); settings: both partners purified
T3 construct: KIX domain, residues 586-672 of mouse CBP; single Tyr residue attached at the C-terminus of MLL28 for concentration determination; A Gly left at the N-terminus after thrombin cleavage is stated only for Myb32, it is likely on MLL28 too; also called KIX and MLL28; source: E. coli BL21(DE3)pLysS (KIX) and BL21(DE3) (MLL28), each purified; 45 uM KIX and 90 uM MLL28 together in the ITC cell; not …
T3 sequence (P45481 586-672, chain 1 of 2): as the sequence (P45481 586-672) above
T3 sequence (Q03164 other isoform, or with tags, fused parts or gaps, chain 2 of 2): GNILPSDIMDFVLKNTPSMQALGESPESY

[4] = target: T3, KIX domain of CBP in the presence of …; test: ITC; 600 uM Myb32 peptide titrated into the cell with 45 uM KIX and 90 uM MLL28; 20 mM Tris-acetate pH 7.0, 50 mM NaCl; 30 °C; settings: both partners purified

Chain of c-Myb TAD TAD (P06876 275-327): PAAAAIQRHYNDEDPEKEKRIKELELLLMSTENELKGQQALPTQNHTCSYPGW

Row | Kd [4] [nM] | dH [4] [kcal mol^–1] | stoichiometry N [4] | Molecule | also measured
1 |  |  |  | c-Myb TAD full length: full-length transactivation domain of c-Myb (residues 275–327), intrinsically disordered (PAAAAIQRHYNDEDPEKEKRIKELELLLMSTENELKGQQVLPTQNHTCSYPGW; transactivation domain; UniProt P10242 275-327, looked up, fragment) | Kd (KIX): 500 nM
2 |  |  |  | GYNDEDPEKERRIKELELLLMSTENELKGQQAL [K293R] | Kd [1]: 220 ± 10 nM
3 |  |  |  | c-Myb TAD TAD (from UniProt P06876) | Kd (CBP KIX (Mus musculus)): 500 nM
4 |  |  |  | GYNDEDPEKEKRIKELELLLMSTENELKGQQAL [WT] | Kd [1]: 220 ± 10 nM
5 |  |  |  | YNDEDPEKEKRIKELELLLMSTENELKGQQAL (Myb32, residues 284-315 of mouse c-Myb; 6xHis-tag, B1 domain of protein G and the thrombin cleavage site stand before Myb32; coupled to the chip by amine coupling; also called immobilized wild-type Myb32; His-tagged Myb32 protein; source: E. coli BL21(DE3), purified (Ni-NTA, eluted with imidazole); not shown: His6, N-terminal, kept; GB1, N-terminal, kept) [His-tag-GB1-Myb32 (wild-type Myb32 with a His-tag and GB1)] | binding result [2]: binds
6 | 220 | -6.49 | 0.97 | GYNDEDPEKEKRIKELELLLMSTENELKGQQAL (additional Gly residue left at the N-terminus after thrombin cleavage; Myb32, residues 284-315 of mouse c-Myb; 33-residue peptide (Gly + 32 residues); also called WT; wild-type Myb32; source: E. coli BL21(DE3), purified (Ni-NTA, thrombin cleavage on the column, DEAE anion exchange); not shown: His6, N-terminal, cleaved; GB1, N-terminal, cleaved) [Myb32 wild type (residues 284-315 of mouse c-Myb, transactivation domain fragment)] | Kd [3]: 510 nM; dH [3]: -13.8 kcal mol^–1; stoichiometry N [3]: 0.99; IC50 [2]: 10900 nM
7 | 210 | -6.46 | 0.97 | GYNDEDPEREKRIKELELLLMSTENELKGQQAL (additional Gly residue left at the N-terminus after thrombin cleavage; Myb32, residues 284-315 of mouse c-Myb; source: E. coli BL21(DE3), purified (Ni-NTA, thrombin cleavage on the column, DEAE anion exchange); not shown: His6, N-terminal, cleaved; GB1, N-terminal, cleaved) [Myb32 K291R] | 
8 | 140 | -7.31 | 0.84 | GYNDEDPERERRIKELELLLMSTENELKGQQAL (additional Gly residue left at the N-terminus after thrombin cleavage; Myb32, residues 284-315 of mouse c-Myb; source: E. coli BL21(DE3), purified (Ni-NTA, thrombin cleavage on the column, DEAE anion exchange); not shown: His6, N-terminal, cleaved; GB1, N-terminal, cleaved) [Myb32 K291R/K293R] | 
9 | 160 | -6.3 | 0.96 | GYNDEDPEKEKRIRELELLLMSTENELKGQQAL (additional Gly residue left at the N-terminus after thrombin cleavage; Myb32, residues 284-315 of mouse c-Myb; source: E. coli BL21(DE3), purified (Ni-NTA, thrombin cleavage on the column, DEAE anion exchange); not shown: His6, N-terminal, cleaved; GB1, N-terminal, cleaved) [Myb32 K296R] | 
10 | 130 | -7.31 | 0.96 | GYNDEDPEKERRIRELELLLMSTENELKGQQAL (additional Gly residue left at the N-terminus after thrombin cleavage; Myb32, residues 284-315 of mouse c-Myb; source: E. coli BL21(DE3), purified (Ni-NTA, thrombin cleavage on the column, DEAE anion exchange); not shown: His6, N-terminal, cleaved; GB1, N-terminal, cleaved) [Myb32 K293R/K296R] | 
11 | 120 | -7.56 | 0.9 | GYNDEDPEREKRIRELELLLMSTENELKGQQAL (additional Gly residue left at the N-terminus after thrombin cleavage; Myb32, residues 284-315 of mouse c-Myb; source: E. coli BL21(DE3), purified (Ni-NTA, thrombin cleavage on the column, DEAE anion exchange); not shown: His6, N-terminal, cleaved; GB1, N-terminal, cleaved) [Myb32 K291R/K296R] | 
12 | 80 | -7.57 | 0.99 | GYNDEDPERERRIRELELLLMSTENELKGQQAL (additional Gly residue left at the N-terminus after thrombin cleavage; Myb32, residues 284-315 of mouse c-Myb; also called RRR Myb32 mutant; source: E. coli BL21(DE3), purified (Ni-NTA, thrombin cleavage on the column, DEAE anion exchange); not shown: His6, N-terminal, cleaved; GB1, N-terminal, cleaved) [Myb32 K291R/K293R/K296R triple mutant (RRR)] | Kd [3]: 260 nM; dH [3]: -14.8 kcal mol^–1; stoichiometry N [3]: 0.99; IC50 [2]: 5600 nM
13 | 480 | -5.45 | 0.92 | GYNDEDPEKLKRIKELELLLMSTENELKGQQAL (additional Gly residue left at the N-terminus after thrombin cleavage; Myb32, residues 284-315 of mouse c-Myb; source: E. coli BL21(DE3), purified (Ni-NTA, thrombin cleavage on the column, DEAE anion exchange); not shown: His6, N-terminal, cleaved; GB1, N-terminal, cleaved) [Myb32 E292L] | 
14 |  | -7.03 | 0.94 | GYNDEDPEKERRIKELELLLMSTENELKGQQAL (additional Gly residue left at the N-terminus after thrombin cleavage; Myb32, residues 284-315 of mouse c-Myb; source: E. coli BL21(DE3), purified (Ni-NTA, thrombin cleavage on the column, DEAE anion exchange); not shown: His6, N-terminal, cleaved; GB1, N-terminal, cleaved) [Myb32 K293R] | 
